Measurements as given in patent publication US20230406935A1 (F STAR THERAPEUTICS, published 2023).
Like-named read-outs stand apart in the source and are kept apart here.

B1: FS17-33-449AA/MSL109 mock mAb^2 (bispecific antibody, human IgG1, kappa, L234A L235A)
heavy: EEQVLESGGGLVKPGGSLRLSCAASGFTFSPYSVFWVRQAPGKGLEWVSSINSDSTYKYYADSVKGRFTISRDNAENSIFLQMNSLRAEDTAVYYCARDRSYYAFSSGSLSDYYYGLDVWGQGTTVIVSSASTKGPSVFPLAPSSKSTSGGTAALGCLVKDYFPEPVTVSWNSGALTSGVHTFPAVLQSSGLYSLSSVVTVPSSSLGTQTYICNVNHKPSNTKVDKKVEPKSCDKTHTCPPCPAPEAAGGPSVFLFPPKPKDTLMISRTPEVTCVVVDVSHEDPEVKFNWYVDGVEVHNAKTKPREEQYNSTYRVVSVLTVLHQDWLNGKEYKCKVSNKALPAPIEKTISKAKGQPREPQVYTLPPSRDETGYWVSLTCLVKGFYPSDIAVEWESNGEPQYWAKTTPPVLDSDGSFFLYSKLTVSNWRWQLDDVFSCSVMHEALHNHYTQKSLSLSPGK
light: DIVMTQSPLSLSVTPGEPASISCRSSQSLLHTNGYNYLDWYVQKPGQSPQLLIYLASNRASGVPDRFSGSGSGTDFTLKISRVETEDVGVYYCMQALQIPRTFGQGTKVEIKRTVAAPSVFIFPPSDEQLKSGTASVVCLLNNFYPREAKVQWKVDNALQSGNSQESVTEQDSKDSTYSLSSTLTLSKADYEKHKVYACEVTHQGLSSPVTKSFNRGEC
B2: FS17-33-548AA/MSL109 (bispecific antibody, human IgG1, kappa, L234A L235A)
heavy: EEQVLESGGGLVKPGGSLRLSCAASGFTFSPYSVFWVRQAPGKGLEWVSSINSDSTYKYYADSVKGRFTISRDNAENSIFLQMNSLRAEDTAVYYCARDRSYYAFSSGSLSDYYYGLDVWGQGTTVIVSSASTKGPSVFPLAPSSKSTSGGTAALGCLVKDYFPEPVTVSWNSGALTSGVHTFPAVLQSSGLYSLSSVVTVPSSSLGTQTYICNVNHKPSNTKVDKKVEPKSCDKTHTCPPCPAPEAAGGPSVFLFPPKPKDTLMISRTPEVTCVVVDVSHEDPEVKFNWYVDGVEVHNAKTKPREEQYNSTYRVVSVLTVLHQDWLNGKEYKCKVSNKALPAPIEKTISKAKGQPREPQVYTLPPSRDEEGYWVSLTCLVKGFYPSDIAVEWESNGEPQYWAKTTPPVLDSDGSFFLYSKLTVSNWRWQLGDVFSCSVMHEALHNHYTQKSLSLSPGK
light: DIVMTQSPLSLSVTPGEPASISCRSSQSLLHTNGYNYLDWYVQKPGQSPQLLIYLASNRASGVPDRFSGSGSGTDFTLKISRVETEDVGVYYCMQALQIPRTFGQGTKVEIKRTVAAPSVFIFPPSDEQLKSGTASVVCLLNNFYPREAKVQWKVDNALQSGNSQESVTEQDSKDSTYSLSSTLTLSKADYEKHKVYACEVTHQGLSSPVTKSFNRGEC
B3: FS17-33-451AA/MSL109 mock mAb^2 (bispecific antibody, human IgG1, kappa, L234A L235A)
heavy: EEQVLESGGGLVKPGGSLRLSCAASGFTFSPYSVFWVRQAPGKGLEWVSSINSDSTYKYYADSVKGRFTISRDNAENSIFLQMNSLRAEDTAVYYCARDRSYYAFSSGSLSDYYYGLDVWGQGTTVIVSSASTKGPSVFPLAPSSKSTSGGTAALGCLVKDYFPEPVTVSWNSGALTSGVHTFPAVLQSSGLYSLSSVVTVPSSSLGTQTYICNVNHKPSNTKVDKKVEPKSCDKTHTCPPCPAPEAAGGPSVFLFPPKPKDTLMISRTPEVTCVVVDVSHEDPEVKFNWYVDGVEVHNAKTKPREEQYNSTYRVVSVLTVLHQDWLNGKEYKCKVSNKALPAPIEKTISKAKGQPREPQVYTLPPSRDEEGYWVSLTCLVKGFYPSDIAVEWESNGEPQYWAKTTPPVLDSDGSFFLYSKLTVSNWRWQLDDVFSCSVMHEALHNHYTQKSLSLSPGK
light: DIVMTQSPLSLSVTPGEPASISCRSSQSLLHTNGYNYLDWYVQKPGQSPQLLIYLASNRASGVPDRFSGSGSGTDFTLKISRVETEDVGVYYCMQALQIPRTFGQGTKVEIKRTVAAPSVFIFPPSDEQLKSGTASVVCLLNNFYPREAKVQWKVDNALQSGNSQESVTEQDSKDSTYSLSSTLTLSKADYEKHKVYACEVTHQGLSSPVTKSFNRGEC
notes: also called FS17-33-451AA/MSL109 (parent 2)
B4: FS17-33-539AA/MSL109 (bispecific antibody, human IgG1, kappa, L234A L235A)
heavy: EEQVLESGGGLVKPGGSLRLSCAASGFTFSPYSVFWVRQAPGKGLEWVSSINSDSTYKYYADSVKGRFTISRDNAENSIFLQMNSLRAEDTAVYYCARDRSYYAFSSGSLSDYYYGLDVWGQGTTVIVSSASTKGPSVFPLAPSSKSTSGGTAALGCLVKDYFPEPVTVSWNSGALTSGVHTFPAVLQSSGLYSLSSVVTVPSSSLGTQTYICNVNHKPSNTKVDKKVEPKSCDKTHTCPPCPAPEAAGGPSVFLFPPKPKDTLMISRTPEVTCVVVDVSHEDPEVKFNWYVDGVEVHNAKTKPREEQYNSTYRVVSVLTVLHQDWLNGKEYKCKVSNKALPAPIEKTISKAKGQPREPQVYTLPPSRDETGYWVSLTCLVKGFYPSDIAVEWESNGEPQYWAKTTPPVLDSDGSFFLYSKLTVSNWRWQLGDVFSCSVMHEALRNHYTQKSLSLSPGK
light: DIVMTQSPLSLSVTPGEPASISCRSSQSLLHTNGYNYLDWYVQKPGQSPQLLIYLASNRASGVPDRFSGSGSGTDFTLKISRVETEDVGVYYCMQALQIPRTFGQGTKVEIKRTVAAPSVFIFPPSDEQLKSGTASVVCLLNNFYPREAKVQWKVDNALQSGNSQESVTEQDSKDSTYSLSSTLTLSKADYEKHKVYACEVTHQGLSSPVTKSFNRGEC
B5: FS17-33-116/4420 mAb^2 (bispecific antibody, human IgG1, kappa, L234A L235A, V domains shown)
VH: EVKLDETGGGLVQPGRPMKLSCVASGFTFSDYWMNWVRQSPEKGLEWVAQIRNKPYNYETYYSDSVKGRFTISRDDSKSSVYLQMNNLRVEDMGIYYCTGSYYGMDYWGQGTSVTVSS
VL: DVVMTQTPLSLPVSLGDQASISCRSSQSLVHSNGNTYLRWYLQKPGQSPKVLIYKVSNRFSGVPDRFSGSGSGTDFTLKISRVEAEDLGVYFCSQSTHVPWTFGGGTKLEIKR

What was measured:
[1] = target: T1, Biotinylated hPD-L1-Fc-Avi (human, UniProt Q9NZQ7 19-238); assay: cell-based RBA, blocking of hPD-L1-Fc-Avi binding to HEK293 hPD-1 cells
Description: The ability of the Fcabs and mock mAb² to block hPD-1/hPD-L1 and hPD-L1/hCD80 interactions was tested in cell-based Receptor Binding Assays (RBA). […] The mix was incubated for another hour with HEK293 cells overexpressing either hPD-1 or hCD80.

[2] = target: T2, Human PD-L1 expressed on cells (human, UniProt Q9NZQ7 19-290); assay: flow cytometry, HEK293 cells overexpressing the target, anti-human Fc 488
T2 construct: also called cell-surface human PD-L1; hPD-L1
Description: (§1) Cell binding assays were performed by incubating Fcabs or mAb² proteins with either control HEK293 cells or HEK293 cells overexpressing hPD-L1 or cynomolgus PD-L1 cells for 1 hour at 4° C. Fcab/mAb binding was subsequently detected using an anti-human Fc 488 detection antibody. Fluorescent signal intensities were measured using a FACS canto.

[3] = target: T3, Cynomolgus PD-L1 expressed on HEK 293 cells (cynomolgus, UniProt Q9NZQ7 19-290 (human entry)); assay: as above
T3 construct: also called cell-expressed cynomolgus PD-L1
Description: as §1

[4] = target: T4, Monomeric His-tagged human PD-L1 (Acro biosystems PD1-H5229) (human, UniProt Q9NZQ7 19-238); assay: SPR Biacore T200, mAb^2 captured by anti-Fab on CM5, monomeric antigen in flow, 1:1 fit
T4 construct: also called hPD-L1-his; PD-L1-his

[5] = target: T5, Monomeric cynomolgus PD-L1 (Acro Biosciences PD1-C52H4) (cynomolgus, UniProt Q9NZQ7 19-238 (human entry)); assay: as above
T5 construct: also called cynomolgus monomeric PD-L1

[6] = target: T1, Biotinylated hPD-L1-Fc-Avi; assay: cell-based RBA, blocking of hPD-L1-Fc-Avi binding to HEK293 hCD80 cells; PD-L1 at 50 µg/mL
[7] = target: T2, Human PD-L1 expressed on cells; assay: cell-based or functional assay
[8] = target: T2, Human PD-L1 expressed on cells; assay: cell-based or functional assay; remark: listed apart in the source
[9] = target: T4, Monomeric His-tagged human PD-L1 (Acro …); assay: SPR Biacore T200 as Example 5.1, anti-Fab capture, monomeric hPD-L1-his
Description: Fcab and mAb² binding to human PD-L1 was assessed by both BIAcore and in a cell binding assay. To measure the affinity of the clones to monomeric hPD-L1-his, the mAb² were captured using an anti-Fab antibody coated on a CM5 chip (GE 28-9582-20 AC) and Fcabs were captured using a Protein A chip (GE 29127556) using a Biacore T200 (GE). To minimize mass transport effects, the capture level was minimized to 200RU and a fast flow rate of 75 μl/min was used. […] The analysis of the data was done using the Biacore T200 evaluation software. Curves subtracted against a blank flow cell and a run with no antigen were analysed using a 1:1 fitting model with no bulk analysis and Rmax analysed locally.
The selected CH3 domain sequences were subcloned and expressed in “mock” (MSL109) mAb² format with the LALA mutation in the CH2 domain, as described in Example 4.2.1, for further screening.

[10] = target: T2, Human PD-L1 expressed on cells; assay: flow cytometry, HEK293 cells overexpressing the target, anti-human Fc 488; remark: listed apart in the source
Description: as §1, with “the mock” for “Fcabs or”, “mAb²” for “mAb² proteins”, “Mock mAb²” for “Fcab/mAb”, “Canto flow cytometer (BD Biosciences).” for “canto.”

[11] = target: T3, Cynomolgus PD-L1 expressed on HEK 293 …; assay: as above; remark: listed apart in the source
Description: as §1, with “the mock” for “Fcabs or”, “mAb²” for “mAb² proteins”, “Mock mAb²” for “Fcab/mAb”, “Canto flow cytometer (BD Biosciences).” for “canto.”

[12] = target: T1, Biotinylated hPD-L1-Fc-Avi; assay: cell-based RBA (Example 8.3), blocking of hPD-L1-Fc-Avi binding to HEK293 hCD80 cells
Description: (§2) The ability of the mock mAb² to block hPD-1/hPD-L1 and hPD-L1/hCD80 interactions was tested in cell-based Receptor Blocking Assays (RBA). […] The mix was incubated for another hour with HEK293 cells overexpressing either hPD-1 or hCD80.

[13] = target: T1, Biotinylated hPD-L1-Fc-Avi; assay: cell-based RBA (Example 8.3), blocking of hPD-L1-Fc-Avi binding to HEK293 hPD-1 cells
Description: as §2

[14] = target: T4, Monomeric His-tagged human PD-L1 (Acro …); assay: SPR Biacore T200, mock mAb^2 captured by anti-Fab on CM5, monomeric antigen in flow, 1:1 fit
[15] = target: T5, Monomeric cynomolgus PD-L1 (Acro …); assay: as above
[16] = target: T2, Human PD-L1 expressed on cells; assay: cell-based or functional assay; remark: listed apart in the source

T3 sequence (Q9NZQ7 other isoform, or with tags, fused parts or gaps limits assumed): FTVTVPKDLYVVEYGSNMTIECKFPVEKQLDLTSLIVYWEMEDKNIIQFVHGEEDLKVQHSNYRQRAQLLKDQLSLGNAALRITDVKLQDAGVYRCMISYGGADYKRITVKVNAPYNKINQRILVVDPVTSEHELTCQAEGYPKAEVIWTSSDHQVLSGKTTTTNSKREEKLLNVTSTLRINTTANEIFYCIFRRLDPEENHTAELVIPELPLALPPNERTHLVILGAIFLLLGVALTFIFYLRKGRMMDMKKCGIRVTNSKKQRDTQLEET
T5 sequence (Q9NZQ7 other isoform, or with tags, fused parts or gaps limits assumed): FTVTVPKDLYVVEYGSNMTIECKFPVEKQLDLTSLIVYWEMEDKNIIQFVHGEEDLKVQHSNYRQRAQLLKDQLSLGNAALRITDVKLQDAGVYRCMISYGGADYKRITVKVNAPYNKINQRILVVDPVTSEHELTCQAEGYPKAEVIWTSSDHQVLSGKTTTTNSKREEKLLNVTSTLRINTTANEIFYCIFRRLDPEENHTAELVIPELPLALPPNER
T1 sequence (Q9NZQ7 19-238 limits assumed): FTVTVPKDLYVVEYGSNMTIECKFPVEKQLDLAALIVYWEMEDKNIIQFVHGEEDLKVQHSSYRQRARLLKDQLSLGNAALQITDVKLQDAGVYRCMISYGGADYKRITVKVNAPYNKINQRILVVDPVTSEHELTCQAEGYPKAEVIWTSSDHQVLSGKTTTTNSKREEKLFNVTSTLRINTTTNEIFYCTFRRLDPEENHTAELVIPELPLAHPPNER
T4 sequence (Q9NZQ7 19-238 limits assumed): as above
T2 sequence (Q9NZQ7 19-290 limits assumed): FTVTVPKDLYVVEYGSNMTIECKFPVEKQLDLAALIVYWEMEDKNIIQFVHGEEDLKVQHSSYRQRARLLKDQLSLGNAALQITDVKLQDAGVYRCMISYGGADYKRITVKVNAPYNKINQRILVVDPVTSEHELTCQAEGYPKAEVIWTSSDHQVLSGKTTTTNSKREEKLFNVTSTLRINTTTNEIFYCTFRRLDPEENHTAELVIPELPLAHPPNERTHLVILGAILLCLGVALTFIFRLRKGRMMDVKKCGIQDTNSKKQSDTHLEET

| Binder | EC50 [1] | Kd [2] | Kd [3] | Kd [4] | Kd [5] | EC50 [6] | DO11.10 EC50 [7] | DO11.10 EC50 [8] | Kd [9] | koff [9] | EC50 [10] | EC50 [11] | EC50 [12] | EC50 [13] | Kd [14] | Kd [15] | DO11.10 T cell activation assay EC50 [16] |
| --- | --- | --- | --- | --- | --- | --- | --- | --- | --- | --- | --- | --- | --- | --- | --- | --- | --- |
| B1 | 1.96 nM | 7.88 nM | 3.6 nM | 0.38 nM | 0.6 nM | 194 nM |  |  |  |  |  |  |  |  |  |  |  |
| B2 |  |  |  |  |  |  | 8.51 nM | 7.59 nM | 0.43 nM | 0.000437 s⁻¹ | 1.5 nM | 2.1 nM | 130 nM | 43.2 nM | 0.6 nM | 0.45 nM |  |
| B3 | 0.92 nM | 11.7 nM | 4.52 nM | 0.34 nM | 0.5 nM | 190 nM | 4.83 nM | 8.28 nM | 0.3 nM | 0.000329 s⁻¹ |  |  |  |  |  |  |  |
| B4 |  |  |  |  |  |  | 3.14 nM | 2.91 nM | 0.39 nM | 0.000427 s⁻¹ | 4.8 nM | 10 nM | 119 nM | 49.7 nM | 0.9 nM | 0.95 nM |  |
| B5 |  |  |  |  |  |  |  |  |  |  |  |  |  |  |  |  | < 1 nM |
